Target: Human PD-L1 (human, UniProt Q9NZQ7 19-290)
Experiment: cell-based or functional assay

Human PD-L1, sequence (Q9NZQ7 19-290): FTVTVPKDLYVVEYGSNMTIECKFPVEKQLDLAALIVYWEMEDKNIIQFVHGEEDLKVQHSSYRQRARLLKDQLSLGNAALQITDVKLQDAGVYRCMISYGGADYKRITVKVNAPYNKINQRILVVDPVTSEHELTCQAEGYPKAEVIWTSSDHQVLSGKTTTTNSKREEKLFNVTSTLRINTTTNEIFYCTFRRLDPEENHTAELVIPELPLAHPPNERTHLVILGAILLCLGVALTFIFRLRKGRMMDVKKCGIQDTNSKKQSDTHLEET

B1: GEN1046 (bispecific antibody, human IgG1, kappa, lambda)
heavy 1: EVQLVESGGGLVQPGRSLRLSCTASGFSLNDYWMSWVRQAPGKGLEWVGYIDVGGSLYYAASVKGRFTISRDDSKSIAYLQMNSLKTEDTAVYYCARGGLTYGFDLWGQGTLVTVSSASTKGPSVFPLAPSSKSTSGGTAALGCLVKDYFPEPVTVSWNSGALTSGVHTFPAVLQSSGLYSLSSVVTVPSSSLGTQTYICNVNHKPSNTKVDKRVEPKSCDKTHTCPPCPAPEFEGGPSVFLFPPKPKDTLMISRTPEVTCVVVAVSHEDPEVKFNWYVDGVEVHNAKTKPREEQYNSTYRVVSVLTVLHQDWLNGKEYKCKVSNKALPAPIEKTISKAKGQPREPQVYTLPPSREEMTKNQVSLTCLVKGFYPSDIAVEWESNGQPENNYKTTPPVLDSDGSFFLYSRLTVDKSRWQQGNVFSCSVMHEALHNHYTQKSLSLSPG
light 1: DIVMTQSPSSLSASVGDRVTITCQASEDISSYLAWYQQKPGKAPKRLIYGASDLASGVPSRFSASGSGTDYTFTISSLQPEDIATYYCHYYATISGLGVAFGGGTKVEIKRTVAAPSVFIFPPSDEQLKSGTASVVCLLNNFYPREAKVQWKVDNALQSGNSQESVTEQDSKDSTYSLSSTLTLSKADYEKHKVYACEVTHQGLSSPVTKSFNRGEC
heavy 2: EVQLLEPGGGLVQPGGSLRLSCEASGSTFSTYAMSWVRQAPGKGLEWVSGFSGSGGFTFYADSVRGRFTISRDSSKNTLFLQMSSLRAEDTAVYYCAIPARGYNYGSFQHWGQGTLVTVSSASTKGPSVFPLAPSSKSTSGGTAALGCLVKDYFPEPVTVSWNSGALTSGVHTFPAVLQSSGLYSLSSVVTVPSSSLGTQTYICNVNHKPSNTKVDKRVEPKSCDKTHTCPPCPAPEFEGGPSVFLFPPKPKDTLMISRTPEVTCVVVAVSHEDPEVKFNWYVDGVEVHNAKTKPREEQYNSTYRVVSVLTVLHQDWLNGKEYKCKVSNKALPAPIEKTISKAKGQPREPQVYTLPPSREEMTKNQVSLTCLVKGFYPSDIAVEWESNGQPENNYKTTPPVLDSDGSFLLYSKLTVDKSRWQQGNVFSCSVMHEALHNHYTQKSLSLSPG
light 2: SYVLTQPPSVSVAPGQTARITCGGNNIGSKSVHWYQQKPGQAPVLVVYDDNDRPSGLPERFSGSNSGNTATLTISRVEAGDEADYYCQVWDSSSDHVVFGGGTKLTVLGQPKAAPSVTLFPPSSEELQANKATLVCLISDFYPGAVTVAWKADSSPVKAGVETTTPSKQSNNKYAASSYLSLTPEQWKSHRSYSCQVTHEGSTVEKTVAPTECS
EC50 value [µg/ml], CD8+ T-cell expansion, donor 02: 0.00523 µg/mL | EC50 value [µg/ml], CD8+ T-cell expansion, donor 28: 0.00754 µg/mL | EC50 value [µg/ml], CD8+ T-cell expansion, donor 72: 0.00506 µg/mL | EC50 value [µg/ml], CD8+ T-cell expansion, donor 89: 0.00776 µg/mL | EC50 value [µg/ml], CD8+ T-cell expansion, mean of donors: 0.0064 µg/mL

From US20240409653A1 (Genmab, published 2024)
